Assay results reported in patent US20180346602A1.
Substitutions are numbered along the chain they refer to.

B1: anti-AAA variant Fc-region antibody M1.6.22 (antibody, V domains shown)
VH: EVQLVESGGDLVKPGGSLKLSCAASGFTFSSYGMSWVRQTPDKRLEWVATISSGGSYIYYPDSVKGRFTISRDNAKNTLYLQMSSLKSEDTAMYYCARLGMITTGYAMDYWGQGTSVTVSS
VL: DVLMTQTPLSLPVSLGDQASISCRSSQTIVHSTGHTYLEWFLQKPGQSPKLLIYKVSNRFSGVPDRFSGSGSGTDFTLKISRVEAEDLGVYYCFQGSHVPYTFGGGTKLEIK
B2: anti-variant (human) Fc-region antibody M1.3.17 (antibody, V domains shown)
VH: EVKLLESGGGLVQPGGSLKLSCAASGIDFRRYWMNWVRQAPGKGLEWIGEIDPDSSTINYTPSLKDKFIISRDNAKNTMYLQMRKVRSEDTALYYCARPYDYGAWFAYWGQGTLVTVSA
VL: QAVVTQESALTTSPGETVTLTCRSTTGAVTTSNYANWVQEKPDHLFTGLIGGTNKRAPGVPARFSGSLIGDKAALTITGAQTEDEAIYFCALWYSDHWVFGGGTKLTVL
B3: anti-variant (human) Fc-region antibody M1.7.24 (antibody, V domains shown)
VH: B2 VH with I27F, R30S, D52T, M79L, R84I, A97V, Y108S
VL: B2 VL with T25S, D96N

The binders below were run against anti-IGF-1R antibody (IgG1 subclass with mutations I253A/H310A/H435A) (human) [IgG part: P01857] (assay: sandwich ELISA assay C; capture on SA plate; tracer FcγRI-Dig; analyte 50 ng/mL).
Binder B1 has a signal [OD405 nm] of 1.06 OD405 nm. In the case of B2, the signal [OD405 nm] is reported as 1.21 OD405 nm. For B3, the signal [OD405 nm] was 0.095 OD405 nm.

These binders were tested against anti-VEGF/ANG2 antibody (IgG1 subclass with mutations P329G/L234A/L235A/I253A/H310A/H435A) (human) [IgG part: P01857] in the same assay as above.
In the case of B1, the signal [OD405 nm] is reported as 0.077 OD405 nm. With B2 the signal [OD405 nm] was 1.17 OD405 nm. For B3, the signal [OD405 nm] was 0.084 OD405 nm.

What follows are binders tested against anti-VEGF/ANG2 antibody (IgG1 subclass with mutations P329G/L234A/L235A) (human) [IgG part: P01857] in the same assay as above.
In the case of B1, the signal [OD405 nm] is reported as 0.057 OD405 nm. B2 was tested, and the signal [OD405 nm] was 1.21 OD405 nm. B3 was tested, and the signal [OD405 nm] was 0.094 OD405 nm.

What follows are binders tested against anti-P-Selectin antibody (IgG4 subclass with mutations S228P/L235E) (human) [IgG part: P01861] in the same assay as above.
Work on B1 yielded a signal [OD405 nm] of 0.054 OD405 nm. Binder B2 has a signal [OD405 nm] of 1.15 OD405 nm. B3 was tested, and the signal [OD405 nm] was 0.066 OD405 nm.

Each binder was assayed against anti-VEGF/ANG2 antibody (wild-type IgG1 subclass) [IgG part: P01857] (assay: sandwich ELISA assay A; capture M1.7.10-Bi; antibody 5 at 25 ng/mL).
Work on B1 yielded a signal [OD405 nm] of 0.053 OD405 nm. With B2 the signal [OD405 nm] was 0.037 OD405 nm. For B3, the signal [OD405 nm] was 0.039 OD405 nm.

What follows are binders tested against anti-VEGF/ANG2 antibody (IgG1 subclass with mutations P329G/L234A/L235A/I253A/H310A/H435A) [IgG part: P01857] (assay: sandwich ELISA assay A; capture M1.7.10-Bi; antibody 1 at 0 ng/mL (blank)).
B1 was tested, and the signal [OD405 nm] was 0.058 OD405 nm. For B2, the signal [OD405 nm] was 0.044 OD405 nm. With B3 the signal [OD405 nm] was 0.05 OD405 nm.

These binders were tested against anti-IGF-1R antibody (IgG1 subclass with mutations I253A/H310A/H435A) (human) [IgG part: P01857] (assay: sandwich ELISA assay C; capture on SA plate; tracer FcγRI-Dig; analyte 2 ng/mL).
Binder B1 has a signal [OD405 nm] of 0.082 OD405 nm. For B2, the signal [OD405 nm] was 1.26 OD405 nm. With B3 the signal [OD405 nm] was 0.074 OD405 nm.

These binders were tested against anti-VEGF/ANG2 antibody (IgG1 subclass with mutations P329G/L234A/L235A/I253A/H310A/H435A) (human) [IgG part: P01857] in the same assay as above.
Work on B1 yielded a signal [OD405 nm] of 0.077 OD405 nm. Binder B2 has a signal [OD405 nm] of 1.17 OD405 nm. For B3, the signal [OD405 nm] was 0.085 OD405 nm.

Each binder was assayed against anti-VEGF/ANG2 antibody (IgG1 subclass with mutations P329G/L234A/L235A) (human) [IgG part: P01857] in the same assay as above.
In the case of B1, the signal [OD405 nm] is reported as 0.072 OD405 nm. Binder B2 has a signal [OD405 nm] of 1.22 OD405 nm. Binder B3 has a signal [OD405 nm] of 0.093 OD405 nm.

These binders were tested against anti-P-Selectin antibody (IgG4 subclass with mutations S228P/L235E) (human) [IgG part: P01861] in the same assay as above.
Binder B1 has a signal [OD405 nm] of 0.067 OD405 nm. With B2 the signal [OD405 nm] was 1.19 OD405 nm. In the case of B3, the signal [OD405 nm] is reported as 0.056 OD405 nm.

What follows are binders tested against anti-IGF-1R antibody (IgG1 subclass with mutations I253A/H310A/H435A) (human) [IgG part: P01857] (assay: sandwich ELISA assay C; capture on SA plate; tracer FcγRI-Dig; analyte 13 ng/mL).
In the case of B1, the signal [OD405 nm] is reported as 0.175 OD405 nm. B2 gave a signal [OD405 nm] of 1.21 OD405 nm. In the case of B3, the signal [OD405 nm] is reported as 0.058 OD405 nm.

Each binder was assayed against anti-VEGF/ANG2 antibody (IgG1 subclass with mutations P329G/L234A/L235A/I253A/H310A/H435A) (human) [IgG part: P01857] in the same assay as above.
Binder B1 has a signal [OD405 nm] of 0.064 OD405 nm. B2 was tested, and the signal [OD405 nm] was 1.14 OD405 nm. With B3 the signal [OD405 nm] was 0.085 OD405 nm.

What follows are binders tested against anti-VEGF/ANG2 antibody (IgG1 subclass with mutations P329G/L234A/L235A) (human) [IgG part: P01857] in the same assay as above.
In the case of B1, the signal [OD405 nm] is reported as 0.061 OD405 nm. In the case of B2, the signal [OD405 nm] is reported as 1.23 OD405 nm. Binder B3 has a signal [OD405 nm] of 0.06 OD405 nm.

Each binder was assayed against anti-P-Selectin antibody (IgG4 subclass with mutations S228P/L235E) (human) [IgG part: P01861] in the same assay as above.
With B1 the signal [OD405 nm] was 0.052 OD405 nm. Work on B2 yielded a signal [OD405 nm] of 1.16 OD405 nm. B3 showed a signal [OD405 nm] of 0.066 OD405 nm.

The binders below were run against anti-IGF-1R antibody (IgG1 subclass with mutations I253A/H310A/H435A) [IgG part: P01857] (assay: sandwich ELISA assay A; capture M1.7.10-Bi; antibody 3 at 50 ng/mL).
B1 was tested, and the signal [OD405 nm] was 2.74 OD405 nm. In the case of B2, the signal [OD405 nm] is reported as 0.044 OD405 nm. In the case of B3, the signal [OD405 nm] is reported as 0.048 OD405 nm.

Each binder was assayed against anti-VEGF/ANG2 antibody (IgG1 subclass with mutations P329G/L234A/L235A) [IgG part: P01857] (assay: sandwich ELISA assay A; capture M1.7.10-Bi; antibody 2 at 3 ng/mL).
Binder B1 has a signal [OD405 nm] of 0.039 OD405 nm. B2 gave a signal [OD405 nm] of 1.22 OD405 nm. With B3 the signal [OD405 nm] was 1.73 OD405 nm.

The binders below were run against anti-IGF-1R antibody (IgG1 subclass with mutations I253A/H310A/H435A) (human) [IgG part: P01857] (assay: sandwich ELISA assay B; capture on SA plate; tracer M1.7.10-Dig; analyte 2 ng/mL).
Binder B1 has a signal [OD405 nm] of 1.48 OD405 nm. Binder B2 has a signal [OD405 nm] of 0.047 OD405 nm. With B3 the signal [OD405 nm] was 0.047 OD405 nm.

What follows are binders tested against anti-VEGF/ANG2 antibody (IgG1 subclass with mutations P329G/L234A/L235A/I253A/H310A/H435A) (human) [IgG part: P01857] in the same assay as above.
Work on B1 yielded a signal [OD405 nm] of 0.041 OD405 nm. With B2 the signal [OD405 nm] was 0.036 OD405 nm. For B3, the signal [OD405 nm] was 0.049 OD405 nm.

These binders were tested against anti-VEGF/ANG2 antibody (IgG1 subclass with mutations P329G/L234A/L235A) (human) [IgG part: P01857] in the same assay as above.
For B1, the signal [OD405 nm] was 0.041 OD405 nm. For B2, the signal [OD405 nm] was 0.125 OD405 nm. Binder B3 has a signal [OD405 nm] of 1.73 OD405 nm.

The binders below were run against anti-P-Selectin antibody (IgG4 subclass with mutations S228P/L235E) (human) [IgG part: P01861] in the same assay as above.
In the case of B1, the signal [OD405 nm] is reported as 0.032 OD405 nm. For B2, the signal [OD405 nm] was 0.049 OD405 nm. Work on B3 yielded a signal [OD405 nm] of 0.033 OD405 nm.

What follows are binders tested against anti-IGF-1R antibody (IgG1 subclass with mutations I253A/H310A/H435A) [IgG part: P01857] (assay: sandwich ELISA assay A; capture M1.7.10-Bi; antibody 3 at 13 ng/mL).
With B1 the signal [OD405 nm] was 1.74 OD405 nm. With B2 the signal [OD405 nm] was 0.04 OD405 nm. B3 showed a signal [OD405 nm] of 0.044 OD405 nm.

These binders were tested against anti-VEGF/ANG2 antibody (IgG1 subclass with mutations P329G/L234A/L235A/I253A/H310A/H435A) [IgG part: P01857] (assay: sandwich ELISA assay A; capture M1.7.10-Bi; antibody 1 at 100 ng/mL).
Work on B1 yielded a signal [OD405 nm] of 0.059 OD405 nm. With B2 the signal [OD405 nm] was 0.043 OD405 nm. B3 gave a signal [OD405 nm] of 0.053 OD405 nm.

These binders were tested against anti-IGF-1R antibody (IgG1 subclass with mutations I253A/H310A/H435A) [IgG part: P01857] (assay: sandwich ELISA assay A; capture M1.7.10-Bi; antibody 3 at 6 ng/mL).
B1 showed a signal [OD405 nm] of 0.858 OD405 nm. Work on B2 yielded a signal [OD405 nm] of 0.038 OD405 nm. In the case of B3, the signal [OD405 nm] is reported as 0.042 OD405 nm.

What follows are binders tested against anti-P-Selectin antibody (IgG4 subclass with mutations S228P/L235E) [IgG part: P01861] (assay: sandwich ELISA assay A; capture M1.7.10-Bi; antibody 4 at 6 ng/mL).
Binder B1 has a signal [OD405 nm] of 0.041 OD405 nm. In the case of B2, the signal [OD405 nm] is reported as 0.036 OD405 nm. B3 gave a signal [OD405 nm] of 0.045 OD405 nm.

Each binder was assayed against anti-VEGF/ANG2 antibody (IgG1 subclass with mutations P329G/L234A/L235A) [IgG part: P01857] (assay: sandwich ELISA assay A; capture M1.7.10-Bi; antibody 2 at 25 ng/mL).
B1 showed a signal [OD405 nm] of 0.06 OD405 nm. B2 gave a signal [OD405 nm] of 2.93 OD405 nm. With B3 the signal [OD405 nm] was 2.61 OD405 nm.
